A short description of the series: label from the status in PepcDB records.
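Further: failed if final PepcDB status was selected cloned or expressed and not failed if soluble or beyond.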

Regarding “MSNYPLHQACMENEFFKVQELLHSKPSLLLQKDQDGRIPLHWSVSFQAHEITSFLLSKMENVNLDDYPDDSGWTPFHIACSVGNLEVVKSLYDRPLKPDLNKITNQGVTCLHLAVGKKWFEVSQFLIENGASVRIKDKFNQIPLHRAASVGSLKLIELLCGLGKSAVNWQDKQGWTPLFHALAEGHGDAAVLLVEKYGAEYDLVDNKGAKAEDVALNEQVKKFFLNNV”, the protein production entry was “not failed”. Then “MSNYTESLQYLDSYISARVPVIGMRTIEQQRALRLLREAATQPRRSSMPFWIYTRATGLRDLRTNAPVQDDRSLTGAMDFAAAQFTSRANATVVFVDPDDLGGDTPITRHIAELARLADSNMGSIVLITDTPIWSGLQRLGMSLHLDLPDADEMYGILSGFLGDHHGHIPIEWDEADGRRAAEFLLGVTEAECINLMATIAAKGSIQKADVLGLAQAKDRIFSDLTGLERVQLKEADYTVGGLSSLREWLQRKHWQLHEDLRDSALRPPRGVLLVGVPGCGKSLSAKAIAHEWQLPLYRLDMGAIHGKYLGESEGRFREALAMADRVAPCVLWIDEIEKGLAGRDDGSGVPQRIIGQFLFWLQESQSRAFVVATANDIRSLPPELLRKGRFDELFFVDLPDAQDRKEIIELYYQRYLQGEPDRDQVDQLVDLSEGFAGSDIESALHDVGLEARRIGGADGLKASFLRDTFANTVPMSRVNPEQIEEIRAWGRERALPAGRSTVSAAPGGAKPSRRIVFMDD”, with “failed”. Turning to “MSPASGSVISCAKVLDDYFYGSSNTVEALLLNSFETPALLFTTETSNLLTDIREDRSRHIEKISPYLLLTAGILSGFNPCLLAVMAFLASVNLTQKGRRKEMLKITLGFSTGIFTMHMLAGLSILGTVNFLPELRSYFSEIAVVMTALLGFWHIYDAYWLRKHAKTTFRTPQPLKDFMSRMDEKNLLLLSFLAGGMFSLVKAPCVGAVYLSLLSLLAMKTDIVRGIEYIWIFNLGLLLPVVLLGLLLAFGLSPKTVTEFRERKRVGIRLITGSILISLALMMQFRIL”, the protein production entry is on record as “failed”.

In the case of “MSPISEPSRLDPVRPGQLLMIDLPGPELDKDTAAYLREHGIGAVCLFGKNVESAEQLRRLCADLREVMGEHALIAIDHEGGAITRPEFWPFAPSAMSLGAADDQQLTEDVNAALARQLRSVGINWNFTPVLDINVNPANPVIGDRAYGSDAARVTRHGRAALAGHTREGVAPCAKHFPGHGDTHQDSHLALPRVSKSRAELDAGELAPFRALLPETPAIMTAHIVYDALDAEHPATLSPRILTGLLREEWGYDGVIVTDSMGMQAIDANYGRGEAAVRALRAGADLVMALGRREVQQATLAAVAEYVPENQAAVATKRERLRALARRFPAQADETLDPQADAALLADA”, the protein production result is “not failed”. The value for “MSPIVSVPDITAPVENVPAILPKVVPGELIVNKPTGGDSDELFQYLVDILASPVYDVAIESPLELAEKLSDRLGVNFYIKREDKQRVFSFKLRGAYNMMSNLSREELDKGVITASAGNHAQGVALAGQRLNCVAKIVMPTTTPQIKIDAVRALGGDVVLYGKTFDEAQTHALELSEKDGLKYIPPFDDPGVIKGQGTIGTEINRQLKDIHAVFIPVGGGGLIAGVATFFKQIAPNTKIIGVEPYGAASMTLSLHEGHRVKLSNVDTFADGVAVALVGEYTFAKCQELIDGMVLVANDGISAAIKDVYDEGRNILETSGAVAIAGAAAYCEFYKIKNENIVAIASGANMDFSKLHKVTELAGLGSGKEALLATFMVEQQGSFKTFVGLVGSLNFTELTYRFTSERKNALILYRVNVDKESDLEKMIEDMKSSNMTTLNLSHNELVVDHLKHLVGGSANISDEIFGEFIVPEKAETLKTFLDAFSPRNITLCRYRNQGDINASLLMGFQVPQAEMDEFKNQADKLGYPYELDNYNEAFNLVVSE” was “not failed”; that for “MSPLASRALSFLGALSLLTFAATPVLAESTPTAAPPQFAVESPKAASSLLLSVAHAGKRLVAVGDRGHILLSDDDGKTWTQAKVPTRQLLTSVFFVNERKGWAVGHDAQILVSDDAGSTWARQFEDLGREAPLLDIWFADEQHGLAVGAYGALLETRDGGQHWEDVSERLDNEDQFHLNAIAAVKDNGLLVVGEAGSLFRSKDWGATWEKLEGPYEGSLFGAIGTADAGGVLVYGLRGHLFRSADFGDSWEEIPLKAASGDLEFGLSDGALLADGRIVVVGHGGSVLESTDGGRSFSVFNRPDRLSLAGVSATGDGHLILVGQGGVHLAAANGAALEQQQLEHHHHHH” was “failed”; that for “MSPLHRFSRTEILIGPEKLQRLRESTVAIFGLGGVGSFAAEALCRAGVGRLVLVDFDDICLTNVNRQLHAMDGTVGKAKVQVMAERLRLINPDADIVPHKDFYEAGNSDFLLSGGYNYVVDAIDHITSKLHLIRSCRERELRIISSMGAANKLDPTKIRVADISKTSVCGLARVVRKQLRRQGIKSGVTVVYSTEEPREQAIADAGCRSNCICPNKEEQRFSCEHRRNILGSISFIPSIFGLTMAGVVVNDLAKD” was “failed”.

Turning to “MSPMTIPSEMKALLLVGDGYTKTPSGSALEAMEPYLEQGRIAVPAPGPSQVLIKVNLASINPSDVAFIKGQYGQPRVKGRPAGFEGVGTIVAGGDEPYAKSLVGKRVAFATGLSNWGSWAEYAVAEAAACIPLLDTVRDEDGAAMIVNPLTAIAMFDIVKQEGEKAFVMTAGASQLCKLIIGLAKEEGFRPIVTVRRDEQIALLKDIGAAHVLNEKAPDFEATLREVMKAEQPRIFLDAVTGPLASAIFNAMPKRARWIIYGRLDPDATVIREPGQLIFQHKHIEGFWLSEWMRQFKERRGPAILEAQKRFSDGRWSTDVTAVVPLAEAIAWVPAELTKPNGKVFIRP”, the protein production result is “not failed”. The value for “MSPNLFIHPRQMPQILLALLGKNLVEIARQFFSARDSNPFFTPAGLTRIARLGRSAVLIGKSKPVPAGKRPTGSKPVHSLPPDRVDPENHARLEVAETDRFPLVKESAPPASFFVEQSPSPAFGEEGNGACKGSGIGGRCVLCVGGRAVLYPEYRRVVEASGGKLVIYRNLPQEPGHHLPVLLDQADMVVCPLDCVNHTAFFTVKRYCRRSGKPCVLLDRSNLSTFCKGIATLAGLYTSPAPARSDQSKRRCPASPEEGQFKDYLEHHHHHH” was “failed”; that for “MSPRRSAAEAQATRGRILGRAAEIASEEGLDGITIGRLAEELEMSKSGVHKHFGTKETLQISTLDKAFVDFWHRVVEPALAEPPGLRRLRAVCANSVGYLEEPLLPGGCLLTAALSEYDGRPGRVRDAVAEVWSRWREQLRADLTAAVDKGELPAGFDVEQALFEIVAAGLALNAAMQLQHDRTAADRARRAIERALAQS” was “not failed”. The value for “MSPTHKPMPEPTEVFTLPRWKITRWLTDTDRDVPTDIKRALIGSLFGTLSIFVGGVVNTLLVAALIAWHIQRPAFFAWFGLECLICIARISILVSARRRARAARSTHTDLHLALSLAWAFSVGLGTYLSITSGNWLAAALACLSSAAMIGGICFRNFGAPRMSGLMILLALGPCCLGAIVAREPLFLLTLIQLPVYVASMTSASFRMHAMLVATMQSERENAHRARHDSMTGLLNRGSLLAEIRATMECNAISPLRSALLYLDLDGFKRINDVHGHGCGDELLQQVADRMRATVPEGTHVSRIGGDEFVILLNLHESDDVQVLAQRLLRDIAVPYLLANGETVAIGVSIGITHISPNGQSADAVLNVADRALYVAKARGKGCFHFSEAVQAL” was “failed”; that for “MSPTLSILIPVYKRDCRRLLEELYKQAEELSVGYEIILGDDCSGEPYTSQYIAYEQEGLCRLVSAEENMGAGRLRNRLAEEAQGEQLLILDSDTLPASPDFIERYLRHASGTTVVCGGFVYPPKSTNPLRQRYGAEVESRSAEERARKPHSGFISMAFMIPRKQMLATGFPPNMGMGYEDILFGERLRQAGIPILHIDNPVEHYHCDTAEGFLATTRSYLDNLYCHREELAELVSLLRAYNLLKRLHLMRMVAALWPLIRSSLEKQLTGAKPSLLLFSLYKLLYVASLSLVCAEKS” was “failed”; that for “MSQAFPGPHGAPATGHVPVLRLGEVLLVTLQGDLHDSTAQQLQEDLAETIVRSGATGVVIDVSGVEIVDSFLGRILAEIAGQTGLLAARTVLVGMRPAVAITLVELGLTLPGVHTALSTEVAMELLRQQAPSSRFGGLRQESQ” was “not failed”. Then “MSQDNYFSRMLRGEAPVPAVAGTLGGVIRAVDLEAGSLESDYVATDAFLNPVGQVQGGMLGAMLDDVTAMLVTATLEDGASCSTLNLNLSFLRPAQAGLLRGRARLERRGRNVCNVVGELSQDGKLVATATATCMVARRA”, with “not failed”; and “MSQEAFENKLYANLEAVIDPELGVDIVNLGLVYDVTADENNNAVITMTMTSIGCPMAGQIVSDVKKVLSTNVPEVNEIEVNVVWNPPWSKERMSRMAKIALGIRD”, with “not failed”.
